In this assay the target is T1, FANCI (human, UniProt Q9NVI1 1-1328).
T1 construct: human FANCI
T1 sequence (looked up): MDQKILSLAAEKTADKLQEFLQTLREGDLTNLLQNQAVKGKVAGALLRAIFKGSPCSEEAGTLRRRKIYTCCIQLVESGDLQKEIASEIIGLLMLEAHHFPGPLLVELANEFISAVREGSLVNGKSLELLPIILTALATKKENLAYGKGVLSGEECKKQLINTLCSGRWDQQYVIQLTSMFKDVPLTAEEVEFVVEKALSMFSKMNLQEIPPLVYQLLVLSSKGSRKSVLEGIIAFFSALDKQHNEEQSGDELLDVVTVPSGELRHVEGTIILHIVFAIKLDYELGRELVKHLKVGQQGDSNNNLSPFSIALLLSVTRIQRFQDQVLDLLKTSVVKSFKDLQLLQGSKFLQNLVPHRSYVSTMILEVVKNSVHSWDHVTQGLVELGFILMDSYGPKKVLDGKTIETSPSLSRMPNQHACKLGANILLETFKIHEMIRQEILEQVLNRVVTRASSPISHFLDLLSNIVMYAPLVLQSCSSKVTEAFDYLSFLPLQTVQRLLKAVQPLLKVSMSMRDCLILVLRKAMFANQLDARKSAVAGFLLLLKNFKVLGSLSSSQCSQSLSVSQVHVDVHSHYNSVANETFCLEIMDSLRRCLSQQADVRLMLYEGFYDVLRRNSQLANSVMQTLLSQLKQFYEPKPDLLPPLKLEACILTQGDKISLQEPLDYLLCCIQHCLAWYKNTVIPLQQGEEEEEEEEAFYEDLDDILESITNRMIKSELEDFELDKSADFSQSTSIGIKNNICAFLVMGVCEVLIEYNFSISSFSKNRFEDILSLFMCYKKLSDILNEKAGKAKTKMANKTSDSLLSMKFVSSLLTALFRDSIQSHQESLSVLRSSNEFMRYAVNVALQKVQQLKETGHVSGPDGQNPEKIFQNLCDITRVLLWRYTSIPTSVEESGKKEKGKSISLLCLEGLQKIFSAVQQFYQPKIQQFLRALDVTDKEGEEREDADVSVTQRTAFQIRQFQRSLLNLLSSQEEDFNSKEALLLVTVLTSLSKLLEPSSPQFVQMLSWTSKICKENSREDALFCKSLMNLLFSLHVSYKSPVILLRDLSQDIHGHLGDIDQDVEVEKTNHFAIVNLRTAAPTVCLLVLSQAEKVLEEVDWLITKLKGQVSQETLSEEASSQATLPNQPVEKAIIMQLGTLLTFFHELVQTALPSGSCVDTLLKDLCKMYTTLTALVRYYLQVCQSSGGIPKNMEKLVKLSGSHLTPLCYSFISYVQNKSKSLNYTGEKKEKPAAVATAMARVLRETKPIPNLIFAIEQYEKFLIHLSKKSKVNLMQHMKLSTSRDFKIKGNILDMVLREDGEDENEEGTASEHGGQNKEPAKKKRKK
Nature of the assay: pull-down; same procedure as for RAD51AP1, but Strep-Tactin resin captured the complexes via the Strep tag on UAF1; USP1 or FANCI as the other protein; SDS-PAGE, Coomassie Blue. Conditions: both partners purified.

B1: UAF1 (natural protein)
chain: not shown
notes: human UAF1 (isoform 1), full-length; also called UAF1 (WT); UAF1 (FL); not shown: Strep-II, C-terminal, kept
As for B1, the binding result is listed as “binds”.

The values are drawn from publication PMC6599204, “DNA requirement in FANCD2 deubiquitination by USP1-UAF1-RAD51AP1 in the Fanconi anemia DNA damage response” (Nature Communications, 2019).
